What was measured:
[1] = target: CusB N-terminal fragment residues 1-61, S(Met) (unlabelled) (Escherichia coli)
[2] = target: CusB N-terminal fragment residues 1-61, S(Met) (unlabelled) (Escherichia coli); assay: rapid freeze quench X-ray absorption spectroscopy (RFQ-XAS, Se K edge); 23 °C; 1:2 mixture of apo-SeM-CusF with Cu(I)-loaded S(met)-CusB-NT, 50 mM HEPES pH 7.5, 5% ethylene glycol, liquid ethane quench, 15 ms to 30 s; Se-Cu peak height fitted (DYNAFIT) to rapid protein-protein association followed by intra-complex metal transfer; the complex shares one Cu(I) between ligands of both proteins

Chain of CusB N-terminal fragment residues 1-61, S(Met) (unlabelled) (Escherichia coli) (P77239 29-89 limits assumed): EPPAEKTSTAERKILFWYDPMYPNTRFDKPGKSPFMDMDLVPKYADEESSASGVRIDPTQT

CusF(6-88) M8I M59I double mutant, S(Met) (unlabelled) (domain or fragment)
fast phase of the quenching of the CusF W44 344 nm emission, stopped-flow fluorescence, 4 °C, apo-S(met)-CusF mixed with Cu(I)-S(Met)-CusB-NT [1]: 165 s⁻¹ | slow phase of the quenching of the CusF W44 344 nm emission, stopped-flow fluorescence, 4 °C, apo-S(met)-CusF mixed with Cu(I)-S(Met)-CusB-NT [1]: 0.012 s⁻¹

selenomethionine-labelled CusF(6-88) M8I M59I double mutant (domain or fragment)
kon [2]: 1e+06 M⁻¹ s⁻¹
